# Test results reported in PMC2875008.
# Read-outs that look alike come from different tables or passages of the source.
# T1: hRad52 (Homo sapiens, UniProt P43351 1-418)
# T1 sequence: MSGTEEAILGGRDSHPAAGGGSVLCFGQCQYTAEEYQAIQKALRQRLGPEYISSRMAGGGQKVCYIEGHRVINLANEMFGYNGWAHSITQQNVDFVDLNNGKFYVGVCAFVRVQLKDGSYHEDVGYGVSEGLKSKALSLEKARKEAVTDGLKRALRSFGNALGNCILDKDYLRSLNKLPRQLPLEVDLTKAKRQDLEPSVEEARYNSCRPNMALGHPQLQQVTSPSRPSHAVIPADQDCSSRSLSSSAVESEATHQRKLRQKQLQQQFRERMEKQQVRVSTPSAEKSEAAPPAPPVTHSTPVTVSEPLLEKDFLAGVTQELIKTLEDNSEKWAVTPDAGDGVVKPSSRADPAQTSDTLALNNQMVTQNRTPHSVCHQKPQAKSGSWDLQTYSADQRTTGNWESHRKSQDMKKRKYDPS
# T2: hRad52 1-212 (Homo sapiens, UniProt P43351 1-212)
# T2 sequence: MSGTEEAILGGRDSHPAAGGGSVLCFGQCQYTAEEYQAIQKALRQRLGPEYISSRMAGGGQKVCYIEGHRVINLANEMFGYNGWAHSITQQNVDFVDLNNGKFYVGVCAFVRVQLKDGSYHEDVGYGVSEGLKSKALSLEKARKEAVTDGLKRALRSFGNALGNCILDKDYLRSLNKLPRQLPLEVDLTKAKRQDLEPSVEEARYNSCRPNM
# B1: poly(dT)-60 (ssDNA)
# DNA: TTTTTTTTTTTTTTTTTTTTTTTTTTTTTTTTTTTTTTTTTTTTTTTTTTTTTTTTTTTT
# Assays:
# hRad52 [1] = biological target: T1, hRad52; test: FRET titration
# hRad52 [2] = biological target: T1, hRad52; test: FRET titration; remark: listed apart in the source
# hRPA [3] = biological target: T3, hRPA (Homo sapiens, UniProt P27694;P15927;P35244 1-616;1-270;1-121); test: FRET titration
# T3 sequence (P27694 whole entry, chain 1 of 3): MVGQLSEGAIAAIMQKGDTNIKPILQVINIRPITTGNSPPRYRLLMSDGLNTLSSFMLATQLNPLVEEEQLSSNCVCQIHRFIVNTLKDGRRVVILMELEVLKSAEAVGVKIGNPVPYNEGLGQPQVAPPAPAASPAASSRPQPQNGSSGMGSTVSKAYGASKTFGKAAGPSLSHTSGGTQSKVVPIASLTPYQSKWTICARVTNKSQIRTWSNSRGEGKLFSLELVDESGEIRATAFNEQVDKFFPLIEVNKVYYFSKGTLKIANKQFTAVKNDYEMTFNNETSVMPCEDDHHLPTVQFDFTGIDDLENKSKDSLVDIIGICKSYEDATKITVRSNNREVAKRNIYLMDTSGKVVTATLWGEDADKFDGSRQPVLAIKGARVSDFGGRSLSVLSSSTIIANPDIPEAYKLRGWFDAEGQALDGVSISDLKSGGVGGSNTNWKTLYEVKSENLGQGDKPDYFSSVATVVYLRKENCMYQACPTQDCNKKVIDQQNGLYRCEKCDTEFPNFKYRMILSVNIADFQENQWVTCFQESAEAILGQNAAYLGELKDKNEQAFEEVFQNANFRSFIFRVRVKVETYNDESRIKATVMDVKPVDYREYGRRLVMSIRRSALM
# T3 sequence (P15927 whole entry, chain 2 of 3): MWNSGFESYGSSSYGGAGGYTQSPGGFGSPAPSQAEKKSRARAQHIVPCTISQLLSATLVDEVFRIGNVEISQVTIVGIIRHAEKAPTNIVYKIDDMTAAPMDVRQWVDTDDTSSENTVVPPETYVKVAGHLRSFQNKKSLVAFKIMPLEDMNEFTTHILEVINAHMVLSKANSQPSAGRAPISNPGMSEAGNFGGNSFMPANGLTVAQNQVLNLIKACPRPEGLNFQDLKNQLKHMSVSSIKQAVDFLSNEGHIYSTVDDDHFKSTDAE
# T3 sequence (P35244 whole entry, chain 3 of 3): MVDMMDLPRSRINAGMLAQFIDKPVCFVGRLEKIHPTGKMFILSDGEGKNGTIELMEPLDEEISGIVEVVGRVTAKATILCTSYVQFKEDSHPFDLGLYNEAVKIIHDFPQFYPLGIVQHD
# hRad52 1-212 [4] = biological target: T2, hRad52 1-212; test: FRET titration
# hRad52 [5] = biological target: T1, hRad52; test: FRET titration; remark: listed apart in the source
# hRPA [6] = biological target: T3, hRPA; test: FRET titration; remark: listed apart in the source
# hRad52 1-212 [7] = biological target: T2, hRad52 1-212; test: FRET titration; remark: listed apart in the source
# hRad52 [8] = biological target: T1, hRad52; test: EMSA
binder,measurement,setting,value
TTTTTTTTTTTTTTTTTTTTTTTTTTTTTTTTTTTTTTTTTTTTTTTTTT (ssDNA) [poly(dT)-50],binding result,hRad52 [1],binds
TTTTTTTTTTTTTTTTTTTTTTTTTTTTTTTTTTTTTTT (ssDNA) [poly(dT)-39],binding result,hRad52 [1],binds
TTTTTTTTTTTTTTTTTTTTTT (ssDNA) [poly(dT)-22],binding result,hRad52 [2],binds
B1,binding result,hRPA [3],binds
same,binding result,hRad52 1-212 [4],binds
same,binding result,hRad52 [5],binds
TTTTTTTTTTTTTTTTTTTTTTTTTTTTTT (ssDNA) [poly(dT)-30],binding result,hRPA [6],binds
same,binding result,hRad52 1-212 [7],binds
same,binding result,hRad52 [8],binds
